Source: US5405758

Biological target: mite allergen fused protein expressed by pAEX201 in E. coli pop2136 (purified recombinant mite allergen fused protein) (Dermatophagoides farinae)
Settings: scale: times lower concentration at the inflexion point than the crude mite body antigen

- histamine release, percent ratio of the released histamine (HPLC): > 200
Substance: blood cells from a mite asthma patient, washed with Hanks' solution (cells without a defined receptor)
